For assay [1], the target named is T1, Recombinant human TNF-alpha (human, UniProt P01375 77-233).
T1 construct: Bought reagent; also called rhTNF-alpha; TNF-α
Nature of the assay: pre-incubation with 2.9 ng/ml rhTNF-alpha, ELISA of unbound rhTNF-alpha. As for the experimental part:
(§1) A fixed concentration of 2.9 ng/ml rhTNF-alpha was used in all incubations. PEGylation was conducted in 5 time molar excess (5 eq) or 10 time molar excess (10 eq) of PEG20 compared etanercept. IC₅₀ is expressed as gram etanercept per ml.
(§2) Recombinant human TNF-alpha (rhTNF-alpha; AbCam PLC, Cambridge, UK; at a fixed concentration of 2.9 ng/ml) was mixed with different concentrations (29000 ng/ml—56.6 pg/ml) of non-PEGylated etanercept, PEG20-etanercept (5 eq) or PEG20-etanercept (10 eq). The pre-incubation mixtures were incubated in a refrigerator at 4-8° C. overnight. The amount of unbound rhTNF-alpha was analysed with a sensitive enzyme-linked immunosorbent assay (ELISA). In brief, 96-well plates (MaxiSorb, Nunc, Roskilde, Denmark) were used for the ELISA. Plates were coated with two anti-TNF-alpha monoclonal antibodies (TNF3/4, Mabtech AB, Nacka Strand, Sweden) diluted in PBS, pH 7.4, to a final concentration of 2 μg/ml. The 96-well plates were incubated in a refrigerator at 4-8° C. overnight. […] The optical density of the resultant yellow color was measured in a spectrophotometer at 450 nm.
For orientation: In an ELISA, binding on a coated surface is turned into a signal by an enzyme label.

In assay [2] the target is T1, Recombinant human TNF-alpha. In words: pre-incubation with 2.9 ng/ml rhTNF-alpha, ELISA of unbound rhTNF-alpha, 4-parameter fit. As for the experimental part:
as §1, §2

T1 sequence (P01375 77-233 limits assumed): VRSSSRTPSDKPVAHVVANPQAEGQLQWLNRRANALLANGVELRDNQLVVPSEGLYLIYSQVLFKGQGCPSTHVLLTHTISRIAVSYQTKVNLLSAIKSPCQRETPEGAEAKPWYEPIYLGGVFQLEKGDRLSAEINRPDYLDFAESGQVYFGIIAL

B1: etanercept (ENBREL®), non-PEGylated (Fc fusion)
chain: LPAQVAFTPYAPEPGSTCRLREYYDQTAQMCCSKCSPGQHAKVFCTKTSDTVCDSCEDSTYTQLWNWVPECLSCGSRCSSDQVETQACTREQNRICTCRPGWYCALSKQEGCRLCAPLRKCRPGFGVARPGTETSDVVCKPCAPGTFSNTTSSTDICRPHQICNVVAIPGNASMDAVCTSTSPTRSMAPGAVHLPQPVSTRSQHTQPTPEPSTAPSTSFLLPMGPSPPAEGSTGDEPKSCDKTHTCPPCPAPELLGGPSVFLFPPKPKDTLMISRTPEVTCVVVDVSHEDPQVKFNWYVDGVQVHNAKTKPREQQYNSTYRVVSVLTVLHQNWLDGKEYKCKVSNKALPAPIEKTISKAKGQPREPQVYTLPPSREEMTKNQVSLTCLVKGFYPSDIAVEWESNGQPENNYKTTPPVLDSDGSFFLYSKLTVDKSRWQQGNVFSCSVMHEALHNHYTQKSLSLSPGK
notes: Commercial ENBREL (Wyeth Europa Ltd); also called etanercept (non-PEGylated); non-PEGylated etanercept
On to B1, for which the binding result in assay [1] is listed as “binds”.

B2: PEG20-etanercept (5 eq) (Fc fusion)
chain: B1 chain
modifications: 20 KDa PEG (PEG20) conjugated via NHS-ester PEG reagent at 5 times molar excess; sites not stated
notes: also called PEGylated etanercept
As for B2, in assay [2], the “fold IC50 against non-PEGylated etanercept” value was below 2 fold.

B3: PEG20-etanercept (10 eq) (Fc fusion)
chain: B1 chain
modifications: 20 KDa PEG (PEG20) conjugated via NHS-ester PEG reagent at 10 times molar excess; sites not stated
notes: as for B2
As for B3, the “fold IC50 against non-PEGylated etanercept” value in assay [2] is below 2 fold.

For the origin of these results see patent US20140030278A1 (QUIAPEG PHARMACEUTICALS, published 2014).
